Patent CN101151278A (GENENTECH INC, dated 2008)
Positions count from the first letter of the chain named. In names and notes the source's numbering stands.

B1: hu2H7.v511 (antibody, human IgG1, kappa, V domains shown)
VH: EVQLVESGGGLVQPGGSLRLSCAASGYTFTSYNMHWVRQAPGKGLEWVGAIYPGNGATSYNQKFKGRFTISVDKSKNTLYLQMNSLRAEDTAVYYCARVVYYSYRYWYFDVWGQGTLVTVSS
VL: DIQMTQSPSSLSASVGDRVTITCRASSSVSYLHWYQQKPGKAPKPLIYAPSNLASGVPSRFSGSGSGTDFTLTISSLQPEDFATYYCQQWAFNPPTFGQGTKVEIKR
notes: full-length IgG1
B2: 2H7.v477 (antibody, human IgG1, kappa)
heavy: EVQLVESGGGLVQPGGSLRLSCAASGYTFTSYNMHWVRQAPGKGLEWVGAIYPGNGATSYNQKFKGRFTISVDKSKNTLYLQMNSLRAEDTAVYYCARVVYYSASYWYFDVWGQGTLVTVSSASTKGPSVFPLAPSSKSTSGGTAALGCLVKDYFPEPVTVSWNSGALTSGVHTFPAVLQSSGLYSLSSVVTVPSSSLGTQTYICNVNHKPSNTKVDKKVEPKSCDKTHTCPPCPAPELLGGPSVFLFPPKPKDTLMISRTPEVTCVVVDVSHEDPEVKFNWYVDGVEVHNAKTKPREEQYNATYRVVSVLTVLHQDWLNGKEYKCKVSNAALPAPIAATISKAKGQPREPQVYTLPPSREEMTKNQVSLTCLVKGFYPSDIAVEWESNGQPENNYKTTPPVLDSDGSFFLYSKLTVDKSRWQQGNVFSCSVMHEALHWHYTQKSLSLSPGK
light: DIQMTQSPSSLSASVGDRVTITCRASSSVSYLHWYQQKPGKAPKPLIYAPSNLASGVPSRFSGSGSGTDFTLTISSLQPEDFATYYCQQWAFNPPTFGQGTKVEIKRTVAAPSVFIFPPSDEQLKSGTASVVCLLNNFYPREAKVQWKVDNALQSGNSQESVTEQDSKDSTYSLSSTLTLSKADYEKHKVYACEVTHQGLSSPVTKSFNRGEC
notes: IgG1; 2H7.v138 with N434W
B3: 2H7.v479 (antibody, human IgG1, kappa, name in EU numbering)
heavy: B2 heavy with W439Y
light: B2 light
notes: IgG1; 2H7.v138 background with the N434 change
B4: 2H7.v478 (antibody, human IgG1, kappa, name in EU numbering)
heavy: B2 heavy with W439F
light: B2 light
notes: as for B3
B5: 2H7.v364 (antibody, human IgG1, kappa, name in EU numbering)
heavy: B2 heavy with W439A
light: B2 light
notes: as for B3
B6: 2H7.v138 (antibody, human IgG1, kappa)
heavy: B2 heavy with W439N
light: B2 light
notes: IgG1

Columns and labels:
CD20 on WIL2-S cells [1] = target: T1, CD20 on WIL2-S cells (human, UniProt P11836 1-297); assay: competitive Scatchard on WIL2-S cells, apparent Kd; competitor of 125I-2H7.v138
T1 construct: whole, on cells; also called CD20抗原; 人CD20
T1 sequence (looked up): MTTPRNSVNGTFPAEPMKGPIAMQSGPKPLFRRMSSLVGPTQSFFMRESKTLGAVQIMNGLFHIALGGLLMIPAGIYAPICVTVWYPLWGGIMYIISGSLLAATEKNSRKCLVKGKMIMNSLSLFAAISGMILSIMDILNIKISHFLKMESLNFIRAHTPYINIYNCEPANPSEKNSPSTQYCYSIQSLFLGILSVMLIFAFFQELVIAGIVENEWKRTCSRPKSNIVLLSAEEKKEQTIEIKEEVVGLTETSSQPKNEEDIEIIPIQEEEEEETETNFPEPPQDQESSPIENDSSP

CD20 on WIL2-S cells [2] = target: T1, CD20 on WIL2-S cells; assay: competitive Scatchard on WIL2-S cells, apparent Kd; competitor of 125I-2H7.v511
人FcRn [3] = target: T2, 人FcRn (human, UniProt P55899 24-297; P61769 21-119, limits assumed); assay: ELISA, biotinylated human FcRn on NeutrAvidin plate, pH 6.0
T2 construct: immobilised on a CM5 chip (BIAcore) or biotinylated and captured on NeutrAvidin (ELISA); also called huFcRn; human FcRn
T2 sequence (P55899 24-297 limits assumed, chain 1 of 2): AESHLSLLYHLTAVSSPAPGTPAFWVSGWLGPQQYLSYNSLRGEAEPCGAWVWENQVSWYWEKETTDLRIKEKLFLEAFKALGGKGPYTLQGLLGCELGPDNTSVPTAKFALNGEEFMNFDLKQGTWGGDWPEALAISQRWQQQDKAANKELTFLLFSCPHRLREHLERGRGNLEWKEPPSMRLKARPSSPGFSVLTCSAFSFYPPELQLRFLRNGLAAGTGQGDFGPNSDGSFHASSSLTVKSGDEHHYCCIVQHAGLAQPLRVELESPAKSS
T2 sequence (P61769 21-119 limits assumed, chain 2 of 2): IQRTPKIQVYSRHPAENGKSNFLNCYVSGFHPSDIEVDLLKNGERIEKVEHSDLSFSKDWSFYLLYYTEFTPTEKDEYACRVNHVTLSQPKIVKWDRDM

人FcRn [4] = target: T2, 人FcRn; assay: ELISA, biotinylated human FcRn on NeutrAvidin plate, pH 7.4

Row | Binder | binding result (人FcRn [3]) | binding result (人FcRn [4]) | also measured
1 | B1 |  |  | Kd (CD20 on WIL2-S cells [1]): 110 pM; Kd (CD20 on WIL2-S cells [2]): 450 pM
2 | B2 | binds |  | 
3 | B3 |  | binds | 
4 | B4 | binds |  | 
5 | B5 |  | binds | 
6 | B6 |  | binds | 
